Test results from patent publication US20230416330A1, “Optimized GIP Peptide Analogues” (Antag Therapeutics ApS, priority 2019, published 2023).
Starred links: 1 amine or outer side, 2 acyl side, 3 side chain; linkers in the order of their positions; H or OH if unused. Non-standard residues stand in square brackets, D forms with d. Groups on a side chain read outwards from the residue. No end group written: not given here. *: point of attachment. C18 diacid = O=C(O)CCCCCCCCCCCCCCCCC(=O)*; C16 diacid = O=C(O)CCCCCCCCCCCCCCC(=O)*; γGlu = O=C(O)[C@H](CCC(=O)[*:2])N[*:1]; Glutaryl = O=C(CCCC(=O)[*:2])[*:1]; Nle = CCCC[C@H](N)C(=O)O; AEEA = NCCOCCOCC(=O)O; Aib = CC(C)(N)C(=O)O

Target: T1, human GIP receptor (human, UniProt P48546 22-466)
T1 sequence (looked up): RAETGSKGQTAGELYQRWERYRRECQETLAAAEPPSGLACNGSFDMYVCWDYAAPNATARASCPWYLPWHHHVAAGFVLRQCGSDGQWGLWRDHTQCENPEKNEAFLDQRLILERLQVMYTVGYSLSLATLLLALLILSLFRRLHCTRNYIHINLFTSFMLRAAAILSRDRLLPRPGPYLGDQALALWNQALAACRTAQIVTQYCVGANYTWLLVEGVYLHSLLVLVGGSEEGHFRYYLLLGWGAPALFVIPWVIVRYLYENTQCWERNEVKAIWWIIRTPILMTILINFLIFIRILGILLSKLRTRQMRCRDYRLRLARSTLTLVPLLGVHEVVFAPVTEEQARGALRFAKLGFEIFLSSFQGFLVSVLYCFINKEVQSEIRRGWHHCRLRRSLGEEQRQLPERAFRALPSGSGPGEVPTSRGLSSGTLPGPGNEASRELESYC
Test: cell-based or functional assay

Binder | cAMP antagonism % inhib (CisBio assay) | cAMP antagonism nM (IC50, CisBio assay) | cAMP antagonism pIC50 (CisBio assay)
EGTFISDYSIA[Nle]DKIK([AEEA-AEEA-γGlu-C18 diacid])QQDFVEWLLAQKPSSGAPPPS-OH [AT683] | 93% | 15.9 nM | 7.8
EGTFISDYSI[Aib]LDKIK([AEEA-AEEA-γGlu-C18 diacid])QQDFVEWLLAQKPSSGAPPPS-OH [AT685] | 83% | 2 nM | 8.7
EGTFISEYSIA[Nle]EKIK([AEEA-AEEA-γGlu-C18 diacid])QQEFVEWLLAQKPSSGAPPPS-OH (N-terminus assumed; SMILES CCCC[C@H](NC(=O)[C@H](C)NC(=O)[C@@H](NC(=O)[C@H](CO)NC(=O)[C@H](Cc1ccc(O)cc1)NC(=O)[C@H](CCC(=O)O)NC(=O)[C@H](CO)NC(=O)[C@@H](NC(=O)[C@H](Cc1ccccc1)NC(=O)[C@@H](NC(=O)CNC(=O)[C@@H](N)CCC(=O)O)[C@@H](C)O)[C@@H](C)CC)[C@@H](C)CC)C(=O)N[C@@H](CCC(=O)O)C(=O)N[C@@H](CCCCN)C(=O)N[C@H](C(=O)N[C@@H](CCCCNC(=O)COCCOCCNC(=O)COCCOCCNC(=O)CC[C@H](NC(=O)CCCCCCCCCCCCCCCCC(=O)O)C(=O)O)C(=O)N[C@@H](CCC(N)=O)C(=O)N[C@@H](CCC(N)=O)C(=O)N[C@@H](CCC(=O)O)C(=O)N[C@@H](Cc1ccccc1)C(=O)N[C@H](C(=O)N[C@@H](CCC(=O)O)C(=O)N[C@@H](Cc1c[nH]c2ccccc12)C(=O)N[C@@H](CC(C)C)C(=O)N[C@@H](CC(C)C)C(=O)N[C@@H](C)C(=O)N[C@@H](CCC(N)=O)C(=O)N[C@@H](CCCCN)C(=O)N1CCC[C@H]1C(=O)N[C@@H](CO)C(=O)N[C@@H](CO)C(=O)NCC(=O)N[C@@H](C)C(=O)N1CCC[C@H]1C(=O)N1CCC[C@H]1C(=O)N1CCC[C@H]1C(=O)N[C@@H](CO)C(=O)O)C(C)C)[C@@H](C)CC) [AT694] | 88% | 1.47 nM | 8.8
EGTFISDYSI[Aib][Nle]DKIK([AEEA-AEEA-γGlu-C18 diacid])QQDFVEWLLAQKPSSGAPPPS-OH [AT686] | 82% | 3.42 nM | 8.5
EGTFISEYSI[Aib]LEKIK([AEEA-AEEA-γGlu-C18 diacid])QQEFVEWLLAQKPSSGAPPPS-OH (N-terminus assumed; SMILES CC[C@H](C)[C@H](NC(=O)[C@H](CCCCN)NC(=O)[C@H](CCC(=O)O)NC(=O)[C@H](CC(C)C)NC(=O)C(C)(C)NC(=O)[C@@H](NC(=O)[C@H](CO)NC(=O)[C@H](Cc1ccc(O)cc1)NC(=O)[C@H](CCC(=O)O)NC(=O)[C@H](CO)NC(=O)[C@@H](NC(=O)[C@H](Cc1ccccc1)NC(=O)[C@@H](NC(=O)CNC(=O)[C@@H](N)CCC(=O)O)[C@@H](C)O)[C@@H](C)CC)[C@@H](C)CC)C(=O)N[C@@H](CCCCNC(=O)COCCOCCNC(=O)COCCOCCNC(=O)CC[C@H](NC(=O)CCCCCCCCCCCCCCCCC(=O)O)C(=O)O)C(=O)N[C@@H](CCC(N)=O)C(=O)N[C@@H](CCC(N)=O)C(=O)N[C@@H](CCC(=O)O)C(=O)N[C@@H](Cc1ccccc1)C(=O)N[C@H](C(=O)N[C@@H](CCC(=O)O)C(=O)N[C@@H](Cc1c[nH]c2ccccc12)C(=O)N[C@@H](CC(C)C)C(=O)N[C@@H](CC(C)C)C(=O)N[C@@H](C)C(=O)N[C@@H](CCC(N)=O)C(=O)N[C@@H](CCCCN)C(=O)N1CCC[C@H]1C(=O)N[C@@H](CO)C(=O)N[C@@H](CO)C(=O)NCC(=O)N[C@@H](C)C(=O)N1CCC[C@H]1C(=O)N1CCC[C@H]1C(=O)N1CCC[C@H]1C(=O)N[C@@H](CO)C(=O)O)C(C)C) [AT695] | 98% | 0.794 nM | 9.1
Glutaryl-GTFISDYSIA[Nle]DKIK([AEEA-AEEA-γGlu-C18 diacid])QQDFVEWLLAQKPSSGAPPPS-OH [AT702] | 85% | 3.55 nM | 8.5
EGTFISEYSIALEKIK([AEEA-AEEA-γGlu-C18 diacid])QQEFVEWLLAQKPSSGAPPPS-OH (N-terminus assumed; SMILES CC[C@H](C)[C@H](NC(=O)[C@H](CO)NC(=O)[C@H](Cc1ccc(O)cc1)NC(=O)[C@H](CCC(=O)O)NC(=O)[C@H](CO)NC(=O)[C@@H](NC(=O)[C@H](Cc1ccccc1)NC(=O)[C@@H](NC(=O)CNC(=O)[C@@H](N)CCC(=O)O)[C@@H](C)O)[C@@H](C)CC)C(=O)N[C@@H](C)C(=O)N[C@@H](CC(C)C)C(=O)N[C@@H](CCC(=O)O)C(=O)N[C@@H](CCCCN)C(=O)N[C@H](C(=O)N[C@@H](CCCCNC(=O)COCCOCCNC(=O)COCCOCCNC(=O)CC[C@H](NC(=O)CCCCCCCCCCCCCCCCC(=O)O)C(=O)O)C(=O)N[C@@H](CCC(N)=O)C(=O)N[C@@H](CCC(N)=O)C(=O)N[C@@H](CCC(=O)O)C(=O)N[C@@H](Cc1ccccc1)C(=O)N[C@H](C(=O)N[C@@H](CCC(=O)O)C(=O)N[C@@H](Cc1c[nH]c2ccccc12)C(=O)N[C@@H](CC(C)C)C(=O)N[C@@H](CC(C)C)C(=O)N[C@@H](C)C(=O)N[C@@H](CCC(N)=O)C(=O)N[C@@H](CCCCN)C(=O)N1CCC[C@H]1C(=O)N[C@@H](CO)C(=O)N[C@@H](CO)C(=O)NCC(=O)N[C@@H](C)C(=O)N1CCC[C@H]1C(=O)N1CCC[C@H]1C(=O)N1CCC[C@H]1C(=O)N[C@@H](CO)C(=O)O)C(C)C)[C@@H](C)CC) [AT693] | 96% | 1.26 nM | 8.9
Glutaryl-GTFISDYSIA[Nle]DKIK(C16 diacid)QQDFVEWLLAQKPSSGAPPPS-OH [AT700] | 89% | 0.708 nM | 9.2
EGTFISEYSI[Aib][Nle]EKIK([AEEA-AEEA-γGlu-C18 diacid])QQEFVEWLLAQKPSSGAPPPS-OH (N-terminus assumed; SMILES CCCC[C@H](NC(=O)C(C)(C)NC(=O)[C@@H](NC(=O)[C@H](CO)NC(=O)[C@H](Cc1ccc(O)cc1)NC(=O)[C@H](CCC(=O)O)NC(=O)[C@H](CO)NC(=O)[C@@H](NC(=O)[C@H](Cc1ccccc1)NC(=O)[C@@H](NC(=O)CNC(=O)[C@@H](N)CCC(=O)O)[C@@H](C)O)[C@@H](C)CC)[C@@H](C)CC)C(=O)N[C@@H](CCC(=O)O)C(=O)N[C@@H](CCCCN)C(=O)N[C@H](C(=O)N[C@@H](CCCCNC(=O)COCCOCCNC(=O)COCCOCCNC(=O)CC[C@H](NC(=O)CCCCCCCCCCCCCCCCC(=O)O)C(=O)O)C(=O)N[C@@H](CCC(N)=O)C(=O)N[C@@H](CCC(N)=O)C(=O)N[C@@H](CCC(=O)O)C(=O)N[C@@H](Cc1ccccc1)C(=O)N[C@H](C(=O)N[C@@H](CCC(=O)O)C(=O)N[C@@H](Cc1c[nH]c2ccccc12)C(=O)N[C@@H](CC(C)C)C(=O)N[C@@H](CC(C)C)C(=O)N[C@@H](C)C(=O)N[C@@H](CCC(N)=O)C(=O)N[C@@H](CCCCN)C(=O)N1CCC[C@H]1C(=O)N[C@@H](CO)C(=O)N[C@@H](CO)C(=O)NCC(=O)N[C@@H](C)C(=O)N1CCC[C@H]1C(=O)N1CCC[C@H]1C(=O)N1CCC[C@H]1C(=O)N[C@@H](CO)C(=O)O)C(C)C)[C@@H](C)CC) [AT696] | 97% | 0.584 nM | 9.2
